# B1: Yali0F15983: putative Y. lipolytica FDH gene; promoter region SEQ ID NO: 3 (1 Kb) and 19 (1.5 Kb) (nucleic acid, listed as Yarrowia lipolytica)
# DNA: ATGAAGGTCCTTCTTATTCTCTACTCTGCCGGTTCTCACGCCGTTGACGAGCCCAAGCTACTCGGTTGCACTGAGAACGAGCTCGGTCTCCGAAAGTGGCTCGAGTCCCGGGGCCACACGCTTGTGACCACCTCTTCAAAGGAGGGAGCCGACTCTGTGCTCGACAAGGAGATTGTCGATGCCGACATTGTCATCACTACTCCCTTCCACCCCGGTTACATCACCCGAGAGCGAATCGCCAAGGCCAAGAACCTCAAAATTTGCATCACTGCCGGTGTTGGTTCGGACCACGTCGATCTTGATGCTGCCAACGAGCGAGATATTGCCGTTCTCGAGGTCACTGGCTCCAACGTGCAGTCTGTGGCTGAGCACGTTGTCATGACCATGCTGGTCCTGGTCCGAAACTTTGTGCCTGCCCACGAGCAGGTCATGGCTGGTGGCTGGGACGTTGCTGCTGTCGCCAAGGACTCCTACGACATTGAGGGAAAGGTCATTGGTACTGTGGGAGGTGGCCGAATTGGTCAGCGAGTCCTAAAGCGAGTTGCTCCCTTCAACCCTAAGGAGATGCTCTACTACGACTACCAGGGTCTGTCTGCTGAGACCGAGAAGGAGCTGAACTGCCGACGAGTCGAGAAGCTCGAGGATATGCTTGCCCAGTGTGATATCGTCACCATCAACTGTCCCCTCCACGAGTCCACCAAGGGTCTCTTCAACAAGGAGATGCTCTCTCACATGAAGAAAGGTGCCTGGCTTGTCAACACCGCTCGAGGAGCCATCTGTGTCAAGGAAGACGTTGCTGAGGCTCTCAAGAACGGCCAGCTGCGAGGCTACGGAGGTGACGTCTGGTTCCCCCAGCCTGCTCCCGCTGACCACCCCTGGAGATCCATGCGAAACAAGTACGGAGCTGGAAACGCCATGACCCCCCATATCTCCGGTACTTGCATCGATGCCCAGGTTCGGTACGCCCAGGGAACCAAGAACATTCTCGACATGTTCTTCTCCGGTAAGCAGGACTACCGACCCCAGGACATCATCTGCATCAACGGTCACTACGGAACCAAGGCCTACGGTGATGACAAGGAGCATGCTAAAAAGTAGGCTGGACGTCGAAATAAACACATTGTTCATCTCTGGGTAGCCCAATAGTAAATAGGTAAGCTGTGATCATTA
# modifications: YALI0F15983g
# B2: Yali0A21353: putative Y. lipolytica FDH gene; promoter region SEQ ID NO: 2 (1 Kb) and 18 (1.5 Kb) (nucleic acid, listed as Yarrowia lipolytica)
# DNA: ATGAAGGTCCTTCTTATTCTCTACGATGCCGGCTCCCACGCCAAGGACGAGCCCAAGCTGCTTGGATGCACCGAGAACGAGCTTGGTATTCGAGACTGGCTCGAGTCGCAGGGCCACACTCTCGTCACCACCTCTTCCAAGGACGGTGCCGACTCTGTGCTTGACAAGGAGATTGTTGACGCTGATGTAGTCATCACCACCCCGTTCCACCCCGGCTACATCAACAAGGAGCGAATTGACAAGGCCAAGAAGCTCAAGATCTGCATCACCGCCGGTGTCGGCTCCGACCACGTGGACCTCGATGCTGCCAACGCCCGAAACATTGCCGTTCTCGAGGTCACCGGCTCGAACGTCCAGTCCGTCGCTGAGCATGTTGTCATGACCATGCTGGTGCTGGTCCGAAACTTTGTCCCTGCCCACGAGCAGATTATTTCTGGCGGCTGGGACGTTGCTGCGGTTGCCAAGGACTCTTACGATCTCGAGGGCAAGGTCATCGGTACCGTTGGAGGCGGTCGAATCGGCCAGCGAGTGCTCAAGCGATGCAAGCCCTTTGACCCCATGGAGATGCTCTACTACGACTACCAGGCTATGCCAGCTGATGTGGAGAATGAGATTGGATGCCGACGAGTCGAGTCTCTGGAGGAGATGCTCTCTCTCTGTGACGTTGTAACCATCAACTGTCCTCTCCATGCCTCCACCAAGGGTCTCTTCAACAAGGAGCTCATTTCCCACATGAAGGACGGCGCTTGGCTCGTCAACACTGCTCGAGGAGCCATCTGCGTCACCGAGGACATTGTCGACGCTCTCGAGTCCGGCAAGATCCGAGGCTACGGTGGTGACGTCTGGTTCCCCCAGCCTGCCCCCAAGGACCACCCCTGGAGAACCATGCGAAACAAGTACGGCGGTGGAAACGCCATGACTCCCCATATCTCCGGTACTTCCATCGACGCCCAGGGCCGATACGCTGAGGGTACCAAGAAGATTCTTGAGGTCTTTTTCTCTGGCAAGCAGGATTACCGCCCCCAGGACATTATCTGCATCAACGGTCACTACGGTACCAAGGCTTACGGTGACGACAAGGAGCACAAGGCCCACGTTTCCAAGTAGCTGTTTAACTTATATAAGCAATTGACTGGATTTGATAACGA
# modifications: YALI0A12353g
# B3: Yali0C08074: putative Y. lipolytica FDH gene; promoter region SEQ ID NO: 5 (1 Kb) and 21 (1.5 Kb) (nucleic acid, listed as Yarrowia lipolytica)
# DNA: ATGAAGGTCCTTCTTGTTCTTTACGATGCTGGCTCCCATGCCAAGGATGAGCCCAAGCTGCTTGGATGCACCGAGAACGAGCTCGGTATCAGAGACTGGCTCGAGTCTCAGGGACATACCCTTGTAACTACGTCTTCCAAGGACGGTGCCGACTCTGTCCTCGACAAGGAGATTGTCGATGCCGATGTAGTCATCACCACCCCCTTTCATCCTGGATACATCAACAAGGAGCGAATCGACAAAGCCAAGAAGCTCAAGATTTGCATCACTGCTGGTGTCGGCTCTGACCACGTCGATCTCGACGCTGCCAACGCCCGAGATATTGCTGTTCTCGAAGTCACCGGCTCCAATGTCCAGTCTGTTGCCGAGCACGTTATCATGACCATGTTGGTCCTGGTGCGAAACTTTGTCCCTGCTCACGAGCAGATCATCTCTGGCGGTTGGGACGTTGCTGCTGTTGCCAAGGACTCATACGATCTCGAGGGTAAGGTCATCGGCACCGTTGGAGGAGGCCGAATTGGCCAGCGAGTGCTCAAGCGATGCAAGCCCTTCGACCCCATGGAGATGCTCTACTACGACTATCAGGCCATGCCAGCTGACGTTGAGAAGGAGATTGGATGTCGTCGAGTCGAGTCTCTCGAGGAGATGCTCTCTCTTTGTGACGTGGTCACCATCAACTGCCCTCTGCACGCTTCCACCAAGGGCCTGTTCAACAAAGAGCTCATCTCGCACATGAAGGATGGTGCCTGGCTCGTTAACACCGCTCGAGGAGCCATTTGTGTCACCGAGGACATTGTCGAGGCTCTCGAGTCCGGTAAGATCCGAGGTTACGGCGGAGACGTTTGGTTCCCCCAGCCTGCCCCTAAGGACCACCCCTGGAGAACCATGCGAAACAAGTACGGGGGAGGAAACGCCATGACTCCTCATATCTCCGGAACTTCCATCGACGCCCAGGGCCGATATGCCGAGGGCACCAAGAAGATCCTTGAGGTTTTCTTTTCTGGAAAGCAGGATTATCGACCCCAGGACATTATCTGCATCAATGGTCACTACGGCACAAAAGCTTACGGAGATGACAAGGAGCACAAGGAGCACCAGCTCAAGTAAATATATATAGCTAGAAACATATCTCGTTGTTGCTT
# modifications: YALI0C08074g
# B4: Yali0F28765: putative Y. lipolytica FDH gene; its formate-inducible promoter region is SEQ ID NO: 11 (1 Kb) and 27 (1.5 Kb) (nucleic acid, listed as Yarrowia lipolytica)
# DNA: ATGAAGGTCCTTCTCATTCTCTACGACGCCGGCTCCCACGCTGTTGATGAGCCCAAACTACTCGGATGCACCGAGAACGAGCTCGGTATCCGATCATGGCTCGAGTCCCAGGGCCATACTCTGGTAACCACCTCTTCCAAGGATGGCGATGACTCTGTCCTCGACAAGGAAATTGTCGACGCCGATGTCGTCATCACCACTCCCTTCCATCCCGGTTACATTACCCGAGAGCGAATTGCCAAGGCCAAGAACCTCAAAATATGTGTTACTGCAGGTGTTGGTTCCGACCATGTCGACCTTGATGCCGCCAACGAGCGAGACATTGCCGTTCTCGAGGTCACTGGTTCCAACGTCCAATCCGTCGCTGAGCACGTCGTCATGACCATGCTCGTCCTCGTCCGAAACTTTGTCCCCGCTCACGAGCAGGTCATGGCTGGTGGTTGGGATGTTGCTGCTGTCGCCAAGGACTCTTATGACATCGAGGGTAAGGTCATTGGTACCGTTGGTGGTGGCCGAATTGGTCAGCGAGTCCTCAAGCGAGTGGCTCCCTTCAACCCTAAGGAGATGCTCTACTACGACTACCAAGGACTTTCTGCTGAGACCGAGCAGGAGCTCAACTGTCGACGAGTCGAGAAGCTTGAAGATATGCTTGCCCAATGTGACATTGTCACCATTAACTGTCCTCTCCACGAGTCTACCAAGGGCCTCTTCAACAAGGAGATGCTCTCTCACATGAAGAAGGGTGCTTGGCTTGTCAACACCGCTCGAGGAGCTATCTGTGTCAAGGAGGATGTCGCCGAGGCTCTTGCCAACGGCCAGCTTCGAGGCTACGGTGGTGATGTGTGGTTCCCTCAGCCAGCCCCTGCCGACCACCCTTGGAGATCGATGCGAAACAAGTACGGCGCCGGTAACGCTATGACCCCACACATATCTGGTACTTCCATTGACGCCCAGGCCCGATACGCCGAGGGCACCAAGAACATTCTCGAGGTCTTCTTCTCCGGAAAGCAGGACTACCGACCCCAGGATATCATCTGTATCAACGGTCACTACGGTACCAAGGCTTACGGCGACGACAAGGAGCACGCCAAGAAATAGATAATATTCATTAACATACAAATACAGTCTACAGTCCTATATCGATTCGGTCGCTTCGAG
# modifications: YALI0F28765g
# Test system: Y. lipolytica JMY2900
# Experiment: qPCR of putative FDH gene transcription upon induction with sodium formate
# Assay type: cell-based, Yarrowia lipolytica
# Settings: YNB with 0.5% sodium formate, 6 h, 28° C., vs absence of formate; qPCR normalised to actin
# Procedure: FIG. 3: Transcription levels of the FDH genes of Yarrowia lipolytica W29 measured by qPCR, normalised to actin (ACT1) expression. Yarrowia lipolytica was grown in YNB supplemented with 1% glucose and 0.5% yeast extract at 15 h at 28° C., before being washed and transferred into YNB with 0.5% of sodium formate for induction and grown for 6 h.
# The inducibility of the putative FDH genes with formate was then tested by qPCR. YALI0E14256g1_1 and the nine putative FDH with the highest % identity to YALI0E14256g1_1 were selected for testing. Y. lipolytica JMY2900 was cultured in YNB media supplemented with 1% glucose and 0.5% yeast extract for 15 h at 28° C. Cells were washed with distilled water and cultured in fresh liquid YNB media supplemented with 0.5% sodium formate at 28° C. with agitation at 160 rpm, before being harvested at 6 h post-inoculated. Cells were frozen in liquid nitrogen and stored at −80° C. RNA was subsequently extracted using the RNeasy Mini Kit (Qiagen), and 2 μg was treated with DNAse (Ambion; Life Science Technologies, Saint-Aubain, France). cDNA was synthesised using the Maxima First Strand cDNA synthesis kit (Thermo Fischer Scientific, Villebon sur Yvette, France). qPCR was then performed using the SYBRgreen mastermix (Thermo Fischer Scientific) with gene-specific primers designed using Primer3 software. Relative expression levels were calculated using ΔCT and ΔΔCT methods. Expression levels were normalised to actin.
row,Molecule,Fold increase on induction (fold change expression of putative FDH genes upon induction with sodium formate) [fold]
1,B1,4.2
2,B2,7.9
3,B3,3.7
4,B4,8.1

# Reference: patent US20230332166A1, “FORMATE-INDUCIBLE PROMOTERS AND METHODS OF USE THEREOF” (Imperial College Innovations Ltd, priority 2020, published 2023)
